{
  "source": "patent JP2001333780A",
  "about": "(dated 2001)",
  "binders": {"B1": {"name": "CaC 型 ヒト型一本鎖抗体 (scFv)", "scFv": "MGHHHHHHQVQLVQSGAEVKKPGASVKVSCKASGFNIKDTLMHWVRQAPGQGLEWMGWIDPEDGNTKYVRKFQGRVTMTRDTSTSTVYMELSSLRSEDTAVYYCARGGSYGNWAYWGQGTTVTVSSGGGGSGGGGSGGGGSDIQMTQSPSSLSASVGDRVTITCRTSENIYSYFAWYQQKSGKAPKLLIYNAKTLAEGVPSRFSGSGSGTEFTLTISSLQPEDFATYFCQHHYGSLHTFGGGTTVDIKHHHHHHGGGS", "notes": "Humanised scFv with VH of Ca type and VL of C type"}, "B2": {"name": "一本鎖scBH抗体 (scFv)", "chain": "QVQLQQSGAELVRPGASVKLSCTASGFNIKDTLMHWVKQRPEQGLEWIGWIDPEDGNTKYVRKFQGKATITADTSSNTAYLQVSSLTSEDTAIYYCVRGGSYGNWAYWGQGTTVTVSSDIELTQSPASLSASVGETVTITCRTSENIYSYFAWYQQKQGKSPHLLVYNAKTLAEGVPSRFSGSGSGTQFSLKINSLQPEDFGIYFCQHHYGSLHTFGGGTKLEIK"}},
  "molecular_target": "T1, 上皮細胞増殖因子レセプター(EGFR) (UniProt P00533 25-1210, limits assumed)",
  "T1 construct": "whole, on cells; The antigen is formalin-fixed A431 cells; also called EGF レセプター; EGFレセプター",
  "assay": "competition ELISA with HRP-labelled B4G7 on formalin-fixed A431 cells",
  "data": [
    {"binder": "B1", "values": [
      {"measurement": "binding result", "value": "binds"}
    ]},
    {"binder": "B2", "values": [
      {"measurement": "抗体一価あたりの結合力 (relative to B4G7抗体)", "value": "~0.33 fold of B4G7 antibody, per antibody valence"}
    ]}
  ]
}
